The labels stand for the following.
B1: CCDC6 (parent)
chain: ASVTIQARAEQEEEFISNTLFKKI
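Also: lentivirally expressed fusions sorted by FACS into six bins by GFP to DsRed ratio, PSI derived from sequencing read proportions per bin multiplied by bin number.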

This data set covers variants of B1. In words: protein stability index of a GFP-peptide fusion (GPS, HEK-293T) (PSI 1-6); higher = more stable. As to conditions: c terminus: a fixed tail appended.
Turning to ASVTIQARVEQEEEFISNTLFKKI [A9V], the protein stability index came to 2.91. As for ASVTIQARDEQEEEFISNTLFKKI [A9D], the protein stability index turned out to be 4.42.

Turning to ASVTIQARREQEEEFISNTLFKKI [A9R], the protein stability index is 3.61. On to ASVTIQARYEQEEEFISNTLFKKI [A9Y], for which the protein stability index came to 2.72. The figure for ASVTIQARHEQEEEFISNTLFKKI [A9H] is 3.17; for ASVTIQARTEQEEEFISNTLFKKI [A9T] it is 3.68.

As to ASVTIQARFEQEEEFISNTLFKKI [A9F], the protein stability index is 2.37. As for ASVTIQARQEQEEEFISNTLFKKI [A9Q], the protein stability index came to 4.09. The figure for ASVTIQARKEQEEEFISNTLFKKI [A9K] is 3.6; for ASVTIQAREEQEEEFISNTLFKKI [A9E] it is 4.16. With ASVTIQARPEQEEEFISNTLFKKI [A9P], the protein stability index is 3.87. Consider ASVTIQARIEQEEEFISNTLFKKI [A9I], for which the protein stability index was found to be 2.62. On to ASVTIQARMEQEEEFISNTLFKKI [A9M], for which the protein stability index came to 3.08. Then ASVTIQARGEQEEEFISNTLFKKI [A9G], with 3.67; and ASVTIQARNEQEEEFISNTLFKKI [A9N], with 3.63. Then ASVTIQARWEQEEEFISNTLFKKI [A9W], with 2.27; and ASVTIQARCEQEEEFISNTLFKKI [A9C], with 3.23. On to ASVTIQARLEQEEEFISNTLFKKI [A9L], for which the protein stability index is 2.5. The figure for ASVTIQARSEQEEEFISNTLFKKI [A9S] is 3.79; for ASVTIQARAAQEEEFISNTLFKKI [E10A] it is 3.06. As to ASVTIQARAFQEEEFISNTLFKKI [E10F], the protein stability index is 2.29. Regarding ASVTIQARACQEEEFISNTLFKKI [E10C], the protein stability index was 2.1. The figure for ASVTIQARANQEEEFISNTLFKKI [E10N] is 3.1.

Consider ASVTIQARAMQEEEFISNTLFKKI [E10M], for which the protein stability index turned out to be 2.95. Turning to ASVTIQARAGQEEEFISNTLFKKI [E10G], the protein stability index came out at 2.38. Then ASVTIQARALQEEEFISNTLFKKI [E10L], with 2.15; and ASVTIQARAKQEEEFISNTLFKKI [E10K], with 3.15; and ASVTIQARAHQEEEFISNTLFKKI [E10H], with 3.25. For ASVTIQARADQEEEFISNTLFKKI [E10D], the protein stability index is 3.4.

As to ASVTIQARAIQEEEFISNTLFKKI [E10I], the protein stability index was 2.39. For ASVTIQNRAEQEEEFISNTLFKKI [A7N], the protein stability index amounted to 3.69.

Take ASVTIQVRAEQEEEFISNTLFKKI [A7V]: the protein stability index was found to be 2.8. In the case of ASVTIQCRAEQEEEFISNTLFKKI [A7C], the protein stability index was found to be 2.45. For the variant ASVTIQDRAEQEEEFISNTLFKKI [A7D], the protein stability index was 4.31. For the variant ASVTIQHRAEQEEEFISNTLFKKI [A7H], the protein stability index stood at 3.6. Regarding ASVTIQPRAEQEEEFISNTLFKKI [A7P], the protein stability index is 3.67. Take ASVTIQWRAEQEEEFISNTLFKKI [A7W]: the protein stability index is 2.74. The figure for ASVTIQGRAEQEEEFISNTLFKKI [A7G] is 3.66; for ASVTIQERAEQEEEFISNTLFKKI [A7E] it is 4.49. Regarding ASVTIQLRAEQEEEFISNTLFKKI [A7L], the protein stability index was found to be 2.12.

For the variant ASVTIQYRAEQEEEFISNTLFKKI [A7Y], the protein stability index was determined as 2.8.

On to ASVTIQKRAEQEEEFISNTLFKKI [A7K], for which the protein stability index was 3.69. The figure for ASVTIQFRAEQEEEFISNTLFKKI [A7F] is 1.98.

As for ASVTIQSRAEQEEEFISNTLFKKI [A7S], the protein stability index amounted to 3.9. As for ASVTIQTRAEQEEEFISNTLFKKI [A7T], the protein stability index is 3.85. Turning to ASVTIQIRAEQEEEFISNTLFKKI [A7I], the protein stability index was found to be 1.93. Then ASVTIQMRAEQEEEFISNTLFKKI [A7M], with 2.67; and ASVTIQQRAEQEEEFISNTLFKKI [A7Q], with 3.93. Consider ASVTIQRRAEQEEEFISNTLFKKI [A7R], for which the protein stability index turned out to be 3. Consider ASVTTQARAEQEEEFISNTLFKKI [I5T], for which the protein stability index amounted to 4.28. Take ASVTYQARAEQEEEFISNTLFKKI [I5Y]: the protein stability index worked out at 3.73. Regarding ASVTQQARAEQEEEFISNTLFKKI [I5Q], the protein stability index was 5.03. On to ASVTSQARAEQEEEFISNTLFKKI [I5S], for which the protein stability index is 4.24. ASVTVQARAEQEEEFISNTLFKKI [I5V]: the protein stability index came out at 4. Consider ASVTRQARAEQEEEFISNTLFKKI [I5R], for which the protein stability index amounted to 4.44.

Consider ASVTWQARAEQEEEFISNTLFKKI [I5W], for which the protein stability index was 3.66. The figure for ASVTIPARAEQEEEFISNTLFKKI [Q6P] is 4.2; for ASVTIWARAEQEEEFISNTLFKKI [Q6W] it is 2.94.

Regarding ASVTIHARAEQEEEFISNTLFKKI [Q6H], the protein stability index was determined as 3.49. Take ASVTIYARAEQEEEFISNTLFKKI [Q6Y]: the protein stability index came to 1.94.

On to ASVTICARAEQEEEFISNTLFKKI [Q6C], for which the protein stability index amounted to 2.81. Take ASVTIAARAEQEEEFISNTLFKKI [Q6A]: the protein stability index worked out at 3.47. For the variant ASVTIGARAEQEEEFISNTLFKKI [Q6G], the protein stability index was found to be 3.73. Take ASVTISARAEQEEEFISNTLFKKI [Q6S]: the protein stability index was found to be 3.35. Take ASVTIKARAEQEEEFISNTLFKKI [Q6K]: the protein stability index came out at 3.98.

ASVTIMARAEQEEEFISNTLFKKI [Q6M]: the protein stability index was determined as 2.54. Then ASVTINARAEQEEEFISNTLFKKI [Q6N], with 3.75. The figure for ASVTIRARAEQEEEFISNTLFKKI [Q6R] is 3.26. Turning to ASVTITARAEQEEEFISNTLFKKI [Q6T], the protein stability index worked out at 3.53. Consider ASVTIDARAEQEEEFISNTLFKKI [Q6D], for which the protein stability index was 4.32. With ASVTIIARAEQEEEFISNTLFKKI [Q6I], the protein stability index stood at 1.97.

With ASVTIFARAEQEEEFISNTLFKKI [Q6F], the protein stability index is 2.89. As to ASVTIEARAEQEEEFISNTLFKKI [Q6E], the protein stability index is 4.26. Take ASVTILARAEQEEEFISNTLFKKI [Q6L]: the protein stability index came out at 2.71. ASVTIVARAEQEEEFISNTLFKKI [Q6V]: the protein stability index stood at 2.71.

On to ASVTIQAKAEQEEEFISNTLFKKI [R8K], for which the protein stability index was found to be 3.79. Regarding ASVTIQAPAEQEEEFISNTLFKKI [R8P], the protein stability index turned out to be 4. Take ASVTIQASAEQEEEFISNTLFKKI [R8S]: the protein stability index amounted to 4.05.

For ASVTIQAHAEQEEEFISNTLFKKI [R8H], the protein stability index worked out at 3.78. On to ASVTIQAMAEQEEEFISNTLFKKI [R8M], for which the protein stability index was determined as 3.12. Turning to ASVTIQADAEQEEEFISNTLFKKI [R8D], the protein stability index worked out at 4.23.

In the case of ASVTIQAAAEQEEEFISNTLFKKI [R8A], the protein stability index amounted to 3.79. As to ASVTIQANAEQEEEFISNTLFKKI [R8N], the protein stability index was found to be 3.69. As for ASVTIQAIAEQEEEFISNTLFKKI [R8I], the protein stability index is 2.98. For the variant ASVTIQAFAEQEEEFISNTLFKKI [R8F], the protein stability index was determined as 2.59. With ASVTIQACAEQEEEFISNTLFKKI [R8C], the protein stability index was 3.27. With ASVTIQAGAEQEEEFISNTLFKKI [R8G], the protein stability index was 4.13.

With ASVTIQAVAEQEEEFISNTLFKKI [R8V], the protein stability index amounted to 3.31. For the variant ASVTIQAEAEQEEEFISNTLFKKI [R8E], the protein stability index was determined as 4.55.

As to ASVTIQAWAEQEEEFISNTLFKKI [R8W], the protein stability index turned out to be 3.27. Consider ASVTIQATAEQEEEFISNTLFKKI [R8T], for which the protein stability index was 3.58.

Consider ASVTIQALAEQEEEFISNTLFKKI [R8L], for which the protein stability index came out at 3.03. On to ASVTIQAQAEQEEEFISNTLFKKI [R8Q], for which the protein stability index was 4.14.

For ASVTIQAYAEQEEEFISNTLFKKI [R8Y], the protein stability index was 3.21.

For the origin of these results see the supplement of paper PMC10567573.
